In patent publication US20250051413A1:

Target: human IL-12 receptor (b1 and b2 chain) (human) (UniProt P42701)
Experiment: cell-based or functional assay

Sequence of human IL-12 receptor (b1 and b2 chain) (human) (Q99665 24-862, chain 2 of 2, other chains not shown): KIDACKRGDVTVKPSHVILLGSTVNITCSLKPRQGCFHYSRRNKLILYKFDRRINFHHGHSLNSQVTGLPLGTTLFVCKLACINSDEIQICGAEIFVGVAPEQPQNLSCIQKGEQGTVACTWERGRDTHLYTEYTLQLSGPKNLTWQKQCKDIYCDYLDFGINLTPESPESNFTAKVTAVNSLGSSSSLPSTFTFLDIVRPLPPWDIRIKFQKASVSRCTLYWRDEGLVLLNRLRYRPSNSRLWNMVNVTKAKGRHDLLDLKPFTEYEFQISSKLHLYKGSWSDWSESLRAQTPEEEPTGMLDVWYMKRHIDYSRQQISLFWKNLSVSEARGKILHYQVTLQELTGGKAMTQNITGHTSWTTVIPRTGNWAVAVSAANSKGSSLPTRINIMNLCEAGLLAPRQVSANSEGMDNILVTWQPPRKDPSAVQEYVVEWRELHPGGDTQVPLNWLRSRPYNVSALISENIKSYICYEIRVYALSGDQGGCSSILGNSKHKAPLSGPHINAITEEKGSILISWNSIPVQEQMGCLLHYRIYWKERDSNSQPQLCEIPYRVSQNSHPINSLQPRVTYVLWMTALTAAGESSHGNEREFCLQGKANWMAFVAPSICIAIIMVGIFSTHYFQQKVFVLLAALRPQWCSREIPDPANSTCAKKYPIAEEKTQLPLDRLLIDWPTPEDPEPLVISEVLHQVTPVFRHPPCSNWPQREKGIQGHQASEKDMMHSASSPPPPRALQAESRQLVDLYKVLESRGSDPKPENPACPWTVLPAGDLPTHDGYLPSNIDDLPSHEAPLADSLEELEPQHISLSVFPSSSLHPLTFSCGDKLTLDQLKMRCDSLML
Sequence of Human recombinant IL-12 (P29460 23-328 limits assumed): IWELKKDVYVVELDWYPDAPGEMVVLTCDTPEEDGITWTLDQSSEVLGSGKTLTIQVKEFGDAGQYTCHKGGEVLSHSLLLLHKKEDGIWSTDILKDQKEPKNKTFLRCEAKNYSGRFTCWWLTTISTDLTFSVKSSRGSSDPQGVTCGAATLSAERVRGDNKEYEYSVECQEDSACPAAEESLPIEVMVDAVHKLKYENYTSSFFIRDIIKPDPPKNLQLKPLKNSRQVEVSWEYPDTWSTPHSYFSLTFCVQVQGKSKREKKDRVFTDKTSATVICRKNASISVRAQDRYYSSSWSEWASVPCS
Sequence of Human recombinant IL-12 (P29459 23-219 limits assumed): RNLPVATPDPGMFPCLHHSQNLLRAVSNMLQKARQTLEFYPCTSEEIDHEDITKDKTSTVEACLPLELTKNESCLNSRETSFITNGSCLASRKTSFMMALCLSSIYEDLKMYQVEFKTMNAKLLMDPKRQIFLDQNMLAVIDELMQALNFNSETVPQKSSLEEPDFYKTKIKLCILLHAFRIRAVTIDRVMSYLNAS

Human recombinant IL-12 (from UniProt P29460 23-328; P29459 23-219) (ligand)
E-max (Maximal response), p-STAT4 positive cells, CD8+ T cells and NK cells: 60 to 80% | EC50 of p-STAT4 induction in human PBMC, CD4+ T cells: 0.072 nM | EC50 of p-STAT4 induction in human PBMC, CD8+ T cells: 0.045 nM | EC50 of p-STAT4 induction in human PBMC, NK cells: 0.166 nM
